Assay [1] has as its target recombinant fragment of human SP-A (rfhSP-A) (human). Put plainly: SEC; gel permeation chromatography, Superdex 200 HR 10/30, TBS with 5 mM EDTA, pH 7.4; rfhSP-A after IMAC and removal of the NT tag; quaternary structure estimated by comparison with molecular weight standards.
The target is the same in assay [2]. Put plainly: SEC; gel permeation chromatography, Superdex 200 HR 10/30, TBS with 5 mM EDTA, pH 7.4; rfhSP-A purified by mannan affinity chromatography; also after freeze/thawing. A general note: In gel filtration, larger molecules generally elute earlier.

The values below come from article PMC5152705.

For the substance “recombinant fragment of human SP-A (rfhSP-A) (domain or fragment)”, in assay [1], the percent dimeric was 15%, the percent monomeric was 9%, the percent trimeric is 72% and the stoichiometry N is 3. In addition, the stoichiometry N in assay [2] was 3.

As usually defined, the stoichiometry N is a count of units in the complex or per binding partner.
